# Assay results from article PMC4973743, “Functional analysis of structurally related soybean GmWRKY58 and GmWRKY76 in plant growth and development”.
# T1: GmWRKY58 (Glycine max (soybean), UniProt B0LUS3 1-317)
# T1 sequence: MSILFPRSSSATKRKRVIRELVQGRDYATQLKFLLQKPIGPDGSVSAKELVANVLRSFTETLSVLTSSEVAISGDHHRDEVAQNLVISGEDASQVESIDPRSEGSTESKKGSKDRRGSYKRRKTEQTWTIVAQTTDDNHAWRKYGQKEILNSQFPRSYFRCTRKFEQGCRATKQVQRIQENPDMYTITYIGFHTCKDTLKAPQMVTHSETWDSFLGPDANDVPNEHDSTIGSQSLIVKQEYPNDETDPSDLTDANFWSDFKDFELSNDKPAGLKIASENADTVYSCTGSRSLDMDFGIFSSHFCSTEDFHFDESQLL
# T2: GmWRKY76 (Glycine max (soybean), UniProt I1KB70 1-319)
# T2 sequence: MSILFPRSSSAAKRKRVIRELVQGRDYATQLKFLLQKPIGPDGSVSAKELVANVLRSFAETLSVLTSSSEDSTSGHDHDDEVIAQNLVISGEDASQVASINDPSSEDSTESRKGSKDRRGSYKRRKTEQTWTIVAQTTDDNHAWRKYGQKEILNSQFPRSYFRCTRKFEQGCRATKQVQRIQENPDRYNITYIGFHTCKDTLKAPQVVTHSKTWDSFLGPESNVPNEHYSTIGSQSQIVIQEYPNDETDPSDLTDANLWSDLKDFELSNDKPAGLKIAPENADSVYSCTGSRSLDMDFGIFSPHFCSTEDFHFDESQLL
# B1: Pchn5 (dsDNA)
# DNA 1: GGAACTTGACCATCCGTTGACCGGGCTGCAGGAATTCG
# DNA 2: CGAATTCCTGCAGCCCGGTCAACGGATGGTCAAGTTCC
# B2: mPchn5 (dsDNA)
# DNA 1: GGAACTTGAACATCCGTTGAACGGGCTGCAGGAATTCG
# DNA 2: CGAATTCCTGCAGCCCGTTCAACGGATGTTCAAGTTCC
# Experiments:
# [1] = target: T1, GmWRKY58; assay: EMSA; 5 ug poly(dI-dC), 1 ug protein; LightShift Chemiluminescent EMSA kit; 20 ul reactions, 2 ng labeled oligo, 5 ug poly(dI-dC), 1 ug recombinant protein; buffer, salt, pH and temperature not stated; settings: tags: His (pET32a fusion), label: biotin 3' end
# [2] = target: T2, GmWRKY76; assay: as above; settings: tags: His (pET32a fusion), label: biotin 3' end
binder,measurement,setting,value
B1,binding result,[1],binds
same,binding result,[2],binds
B2,binding result,[1],no binding
same,binding result,[2],no binding
